± gives the standard error. This sample holds only a part of the variants without activity.
B1: glmS ribozyme (parent)
chain: AUAAAAGCGCCAGAACUACAGAAAUGUAGUUGACGAGGAGGAGGUUUAUCGAAUUUUCGGCGGAUGCCUCCAAA

Assays:
Details in all cases: with glucosamine-6-phosphate
[1] = variants of: B1; assay: self-cleavage kobs at 160 uM GlcN6P; higher = faster cleavage; RNA array
Outline: (§1)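 Barcoded ribozyme variants, transcribed in situ by E. coli RNA polymerase on sequenced MiSeq chips, were followed via a hybridised Cy3 probe at 37 °C. Glucosamine-6-phosphate ranged from 40 μM to 10 mM in HEPES/KCl/Mg(OAc)2 buffer. kobs came from decay fits to per-tile medians, and kcat and KM from weighted Michaelis–Menten fits.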

[2] = variants of: B1; assay: self-cleavage kobs at 640 uM GlcN6P; higher = faster cleavage; RNA array
Outline: as §1

[3] = variants of: B1; assay: self-cleavage kobs at 2500 uM GlcN6P; higher = faster cleavage; RNA array
Outline: as §1

[4] = variants of: B1; assay: self-cleavage kobs at 10000 uM GlcN6P; higher = faster cleavage; RNA array
Outline: as §1

Variant | self-cleavage kobs at 160 uM GlcN6P [1] [s⁻¹] | self-cleavage kobs at 640 uM GlcN6P [2] [s⁻¹] | self-cleavage kobs at 2500 uM GlcN6P [3] [s⁻¹] | self-cleavage kobs at 10000 uM GlcN6P [4] [s⁻¹]
AUAAAAGCCCCAGAUCUACAGAAAUGUAGUUGACGAGGAGGAUGUUUAUCGAAUUUUCGGCGGAUGCCUCCAAA [G9C A15U G43U] | < 1e-05 | < 1e-05 | < 1e-05 | –
AUAAAAGCACCAGAACUACAGAAAUGUAGUUGACGAGGAGGAGGUCUAUCGAAUUUUCGGCGCAUGCCUCCAAA [G9A U46C G63C] | < 1e-05 | < 1e-05 | – | –
AUAAAAGUGCCAGAACUACAGAAAUGUAGUUGACGAGGAGGAGGUUUAUCGGAUUUUCGGCGGAUGCCUCCAAA [C8U A52G] | < 1e-05 | < 1e-05 | < 1e-05 | < 1e-05
AUAAAAGCACCAGAACUACAGAAAUGUAGCUGACGAGGAGGCGGUUUAUCGAAUUUUCGGCGGAUGCCUUCAAA [G9A U30C A42C C70U] | < 1e-05 | < 1e-05 | – | –
AUAAAAGCACCUGAACUACAGAAAUGUAGUUGCCGAGGAGGAGGUUUAUCGAAUUUUCGGCUGAUGCCUCCAAA [G9A A12U A33C G62U] | < 1e-05 | – | – | –
AUAAAAGCACCAGAACUACAGAAAUGUAAUUGACGAGGAGGGGGUUUCUCGAAUUUUCGGCGGAAGCCUCCAAA [G9A G29A A42G A48C U65A] | < 1e-05 | < 1e-05 | < 1e-05 | –
AUAAAAGCACCAGAACUACAGAAAUGUAAUUGACGAGGAGGAGGUUUCUCGAAUUUUUGGCGGAUGCCUCCAAA [G9A G29A A48C C58U] | < 1e-05 | – | – | –
AUAAAAGGGCCAGAACUACAGAAAUGUAGUUGAGGAGGAGGAGGUUUAUCGGAUUUUCGGCGGAUGCCUCCAAA [C8G C34G A52G] | < 1e-05 | < 1e-05 | – | –
AUAAAAGGGCCAGAACUACAGAAAUGUAGUUGACGAGAAGGAGGUUUAUCGAAUUUUGGGCGGAUGGCUCCAAA [C8G G38A C58G C67G] | 0.000186 ± 5e-05 | 0.000538 ± 0.00013 | 0.000435 ± 0.00014 | –
AUAAAAGUGCCAGAAAUACAGAAAUGUAGUUGACGAGGCGGAGGUCUAUCAAAUUUUCGGCGGAGGCCACCAAA [C8U C16A A39C U46C G51A U65G U69A] | < 1e-05 | – | < 1e-05 | –
AUAAAAGGGCCAGAACUACAGAAAUGUAGUUGACGAGGAGGAGCUUUAUCGAAUUUUCGGCGGAUGCCUCCAAA [C8G G44C] | < 1e-05 | < 1e-05 | < 1e-05 | < 1e-05
AUAAAAGGGCCAGAACUACAGAAAUGUAGUUGACGAGGAGGAGAUUUAUCGAAUUUUCGGCGGAUGCCUCCAAA [C8G G44A] | < 1e-05 | < 1e-05 | < 1e-05 | < 1e-05
AUAAAAGUGCCAGAACUACAGAAAUGUAGUUGACGAGGCGGAGGUUUAUGGAAUUUUCGGGGGAUGCCUCCAAA [C8U A39C C50G C61G] | < 1e-05 | < 1e-05 | < 1e-05 | –
AUAAAAGUGCCAGAACUACAGAAAUGUAGUUGACGAGGAGGAGGUAUAUCGAAUUUUCGGCGGAUGCCUCCAAA [C8U U46A] | < 1e-05 | – | < 1e-05 | < 1e-05
AUAAAAGUGCUAGAAGUACAGAAAUGUAGUUGACGAGGAGGAGGUUUAUCGAAUGUUCGGCGGAUGCCUCCAAA [C8U C11U C16G U55G] | < 1e-05 | < 1e-05 | – | –
AUAAAAGCACCAGAACUACAGAAAUGUAGUUGACGAGGAGGAGGUUUAUCGAAUUUUCGGCGGAUGAGUCCAAA [G9A C67A C68G] | < 1e-05 | < 1e-05 | < 1e-05 | –
AUAAAAGCACCAGAACUACAGAAAUGUAGUUGACGAGGAGGAGCUUUAUCGAAUUUUCGGCGGAUGCAUCCAAA [G9A G44C C68A] | < 1e-05 | < 1e-05 | < 1e-05 | –
AUAAAAGUGCCAGAACUACAGAAAUGUAGUUGACGAGGAGGAGGUUUAUCGAAUUUUCGUCGGAUGCUUCCAAA [C8U G60U C68U] | < 1e-05 | < 1e-05 | < 1e-05 | < 1e-05
AUAAAAGUGCCAGAACUACAGAAAUGUAGUUGACCAGGAGGAGGUUUAUUUAAUUUUCGGGGGAUGCCUCCAAA [C8U G35C C50U G51U C61G] | < 1e-05 | – | < 1e-05 | –
AUAAAAGCCCCGGAACUACAGAAAUGUAGUUGACGAGGAGGAGGUUUAUCGAAUUUUCGGCGGAUGCCUCCAAA [G9C A12G] | < 1e-05 | – | < 1e-05 | < 1e-05
AUAAAAGGGCCAGAACUACAGAAAUGUAGUUGACGAGGAGGAGGUUUAUCGAAUUUUCGGAGGAUGCUUCCAAA [C8G C61A C68U] | < 1e-05 | – | – | –
AUAAAAGGGCCAGAACUACAGAAAUGUAGUUUACGAGGAGGAGGUUUAUCGAAUUUUUGGCGGAUGCCUCCAAA [C8G G32U C58U] | < 1e-05 | < 1e-05 | – | –
AUAAAAGGGCCAGAACUACAGAAAUGUAGUUGACGAGGACGAGGUUUACCGAAUUUUCGGAGGAUGCCUCCAAA [C8G G40C U49C C61A] | < 1e-05 | < 1e-05 | < 1e-05 | –
AUAAAAGCACCAGAACUACAGAAAUGUAGUUGACGGGGAGGAGGUUUAUCGAAUUUUCGGCGGCUGCCUCCAAA [G9A A36G A64C] | < 1e-05 | – | < 1e-05 | –
AUAAAAGUGCCAGAACUACAGAAAUGUAGUUGACGAGGAGGAGGUUCAUCGAAUUUUCGGCUGAUGCCUCCAAA [C8U U47C G62U] | < 1e-05 | < 1e-05 | – | –
AUAAAAGCCCCAGAACUACAGAAAUGUAGUUGUCGGGGAGGAGGAUUCUCGAAUUUUCGGCGGAUGCCUCCAAA [G9C A33U A36G U45A A48C] | < 1e-05 | < 1e-05 | < 1e-05 | –
AUAAAAGGGCCAGAACUACAGAAAUGUAGUUGACGAGGAGGAGGUCUAUCGAAUUUUCGGCGGAUGCCUCCAAA [C8G U46C] | < 1e-05 | < 1e-05 | < 1e-05 | < 1e-05
AUAAAAGUGCCAGAACUACAGAAAUGUAGUUUACGAGGAGGAGGUUUAUCGAAUUUUCGGCUGAUGCCUCUAAA [C8U G32U G62U C71U] | < 1e-05 | – | < 1e-05 | –
AUAAAAGCCCCAGAACUACAGAAAUGUAGUUGACGAGGAGGAGGUUUAUCGAGUUUUCGGCGGAUGCCUCCAAA [G9C A53G] | < 1e-05 | – | < 1e-05 | < 1e-05

— the supplement of paper PMC7125110
